From IntAct's records for PubMed 22927646

B1: Isoform 2 of Acid ceramidase (Homo sapiens), Q13510-2 (parent)
chain: MNCCIGLGEKARGSHRASYPSLSALFTEASILGFGSFAVKAQWTEDCRKSTYPPSGPTYRGAVPWYTINLDLPPYKRWHELMLDKAPVLKVIVNSLKNMINTFVPSGKIMQVVDEKLPGLLGNFPGPFEEEMKGIAAVTDIPLGEIISFNIFYELFTICTSIVAEDKKGHLIHGRNMDFGVFLGWNINNDTWVITEQLKPLTVNLDFQRNNKTVFKASSFAGYVGMLTGFKPGLFSLTLNERFSINGGYLGILEWILGKKDVMWIGFLTRTVLENSTSYEEAKNLLTKTKILAPAYFILGGNQSGEGCVITRDRKESLDVYELDAKQGRWYVVQTNYDRWKHPFFLDDRRTPAKMCLNRTSQENISFETMYDVLSTKPVLNKLTVYTTLIDVTKGQFETYLRDCPDPCIGW

Variants of: B1
Conditions: with stf1_human NR5A1, Q13285
stf1_human NR5A1, Q13285, sequence (Q13285 whole entry): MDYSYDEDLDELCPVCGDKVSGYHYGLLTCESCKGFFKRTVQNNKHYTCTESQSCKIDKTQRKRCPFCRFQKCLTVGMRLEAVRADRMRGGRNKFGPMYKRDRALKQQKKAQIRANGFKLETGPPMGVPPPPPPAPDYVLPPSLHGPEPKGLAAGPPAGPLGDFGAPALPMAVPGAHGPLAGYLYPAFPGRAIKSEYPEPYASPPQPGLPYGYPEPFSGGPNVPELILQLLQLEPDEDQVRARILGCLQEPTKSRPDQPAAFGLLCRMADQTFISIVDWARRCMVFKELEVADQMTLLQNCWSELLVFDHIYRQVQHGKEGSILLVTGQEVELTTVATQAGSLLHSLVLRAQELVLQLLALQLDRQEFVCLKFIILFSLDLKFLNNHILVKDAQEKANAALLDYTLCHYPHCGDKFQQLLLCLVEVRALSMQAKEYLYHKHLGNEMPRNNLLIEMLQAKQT

| Variant | effect of a mutation on the interaction |
| --- | --- |
| MNCCIGLGEKARGSHRASYPSASAAFTEASILGFGSFAVKAQWTEDCRKSTYPPSGPTYRGAVPWYTINLDLPPYKRWHELMLDKAPVLKVIVNSLKNMINTFVPSGKIMQVVDEKLPGLLGNFPGPFEEEMKGIAAVTDIPLGEIISFNIFYELFTICTSIVAEDKKGHLIHGRNMDFGVFLGWNINNDTWVITEQLKPLTVNLDFQRNNKTVFKASSFAGYVGMLTGFKPGLFSLTLNERFSINGGYLGILEWILGKKDVMWIGFLTRTVLENSTSYEEAKNLLTKTKILAPAYFILGGNQSGEGCVITRDRKESLDVYELDAKQGRWYVVQTNYDRWKHPFFLDDRRTPAKMCLNRTSQENISFETMYDVLSTKPVLNKLTVYTTLIDVTKGQFETYLRDCPDPCIGW [L22A;L25A] | disrupting interaction strength |
